P.E. binding ELISA OD and OD (PE binding ELISA) data for 30 molecules are collected here from patent US20240409645A1.

T1: mouse IL-2Rβ (mouse) (UniProt P16297)
T1 sequence (looked up): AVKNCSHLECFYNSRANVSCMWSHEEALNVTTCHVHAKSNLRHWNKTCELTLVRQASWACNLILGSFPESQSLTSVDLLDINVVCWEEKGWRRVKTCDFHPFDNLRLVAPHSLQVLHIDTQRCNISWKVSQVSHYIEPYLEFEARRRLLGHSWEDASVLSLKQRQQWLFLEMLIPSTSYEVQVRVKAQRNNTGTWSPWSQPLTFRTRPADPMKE

T2: mouse IL-2Rγ (mouse) (UniProt P34902)
T2 sequence (looked up): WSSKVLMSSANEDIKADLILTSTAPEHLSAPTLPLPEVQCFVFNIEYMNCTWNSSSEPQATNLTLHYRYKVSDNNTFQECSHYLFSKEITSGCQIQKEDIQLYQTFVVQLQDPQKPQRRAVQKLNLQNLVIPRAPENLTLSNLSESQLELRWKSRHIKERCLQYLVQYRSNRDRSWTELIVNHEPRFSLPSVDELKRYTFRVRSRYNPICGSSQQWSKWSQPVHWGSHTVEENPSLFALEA

B1: FJ1427 P035MP03D07 (VHH)
VHH: EVQLVESGGGLVQAGGSLRLSCAASGDVFVRYTMAWFRQAPGKEREFVASVTDSGRTTDYGDSVKGRFTVSRDNAKNTVYLQMNNLKPEDTAVYYCAANTDYFQIRSLDANTWGQGTQVTVSS
B2: FJ1427 P035MP03B10 (VHH)
VHH: B1 VHH with E1Q, A23V, A24V, S50V, D59E, G61V, L108V, A110N, T112A
B3: FJ1427 P035MP03C08 (VHH)
VHH: B1 VHH with S21A, A24L, G61V, D62A, K65Q, A75N, N85S, A110R
B4: FJ1427_P035MP03E11 (VHH)
VHH: B1 VHH with A23V, A24V, S50A, D59E, G61V, K87E, L108V, A110N, T112A
B5: FJ1427_P035MP03B09 (VHH)
VHH: B1 VHH with E1Q, A23V, A24V, A49T, V51I, D59E, G61V, Q104R
B6: FJ1427 P035MP03E07 (VHH)
VHH: B1 VHH with E1Q, A24V, S50T, D59E, G61V, Q104R
B7: FJ1427_P035MP06B02 (VHH)
VHH: B1 VHH with E1Q, A23V, A24V, S50A, D59E, G61V, L108V, A110N, T112A
B8: FJ1427 P035MP03B11 (VHH)
VHH: B1 VHH with S21A, A24L, G61V, D62A, K65Q, A75N, N85S, A110R
B9: FJ1427_P035MP03H07 (VHH)
VHH: B1 VHH with A23V, A24V, S50A, D59E, G61V, L108V, A110N, T112A
B10: FJ1427_P035MP03G09 (VHH)
VHH: B1 VHH with E1Q, A23V, A24V, S50V, D59E, G61V, L108V, A110N, T112A
B11: FJ1427 P035MP03B12 (VHH)
VHH: B1 VHH with S50A, T58A, G61V, A110R
B12: FJ1427_P035MP03A09 (VHH)
VHH: QVQLVESGGGLVQAGGSLRLACAASGRTFSTLTMGWFRQAPGKEREFVAGISPSGGYAWHADSVKGRFTIDRDNAKNTVYLQTRSLRPEDTAVYYCAADHPPYGAVASRSEYEYDDWGPGTRVTVSS
B13: FJ1427_P035MP03G07 (VHH)
VHH: QVQLVESGGGLVQAGGSLRLSCAASGRTFSSDAKGWFRQAPGKEREFVAAITWAGRGTDYADSVKGRFTITRDNAKNMVYLQMSNLKPEDTAVYYCALNPEGVIGPYFRNSNRYNYWGQGTQVTVSS
B14: FJ1427 P035MP03C10 (VHH)
VHH: QVQLVESGGGLVQAGGSLRLSCAASGRTFSTTEMGWFRQAPGKEREFVAAITWTGRGTMYAESVEGRFTISRENAKNMVYLQMNSLKPEDTAIYYCAAARRGRAAVRSEGGYDFWGQGTQVTVSS
B15: FJ1427 P035MP03H10 (VHH)
VHH: B14 VHH
B16: FJ1427_P035MP03C07 (VHH)
VHH: QVQLVESGGGLVQAGDSLRLSCAASGRSLSTDCMGWVRQAPGKEREFVAGITWGTGSTLYADSVEGRFTISKDNAKNTGYLQMSSLKPEDTAVYYCAVDRYCYRGTVYRDWGRGTQVTVSS
B17: FJ1427_P035MP03E08 (VHH)
VHH: QVQLVESGGGLVQAGGSLRLSCAAAGRAIENYPVGWFRRAPGKEREFVAAITWISGSTLYADSVKGRFTISRDNAKNTVYLQMSSLKPEDTALYYCAAALKTITRGQNDYSYWGQGTQVTVSS
B18: FJ1427 P035MP03F09 (VHH)
VHH: B17 VHH with Q1E, R19T, A25S, I29F, E30S, R39Q, I54L, K65E, Q82L, Y95F
B19: FJ1427_P035MP03H09 (VHH)
VHH: QVQLVESGGGLVQAGGSLRLSCAASGSIFSINAMGWFRQAPGKEREFVAAISRSGGSTAYVDSVKGRFTISRDNSKNMVHLQMNSLKSEDEAVYYCAATAAVGWTSRWITTDFDSWGQGTQVTVSS
B20: FJ1427 P035MP06G01 (VHH)
VHH: EVQLVESGGGLVQAGDSLRLSCVVSGRGFSTYTMGWFRQAPGKEREFVAAITWSTGRTSYADSVKGRFTISRENAENTVYLQMNSLELEDTAVYYCATDQVLWTTRPRDMRYWGQGTQVTVSF
B21: FJ1427 P035MP03C12 (VHH)
VHH: QVQLVESGGGLVQAGGSLRLSCAASGRAFSTYSMGWFRQTPGKEREFVAIISESGGIIDYGDSVKGRFTLSRDNAKNTVSLQMSSLQPEDTAVYYCAAARDWFARTAYQYDYWGQGTQVTVSA
B22: FJ1427_P035MP03D10 (VHH)
VHH: QVQLQESGGGLVQAGDSLRLSCVVSGRDFSGYTMGWFRQPPGKEREFVALITWSTGRVHYTDSVEGRFTISRDSAKNTVYLQMNSLKPEDTAVYTCAAGRVGYTTNLHSYDYSGQGTQVIVSA
B23: FJ1427 P035MP03F11 (VHH)
VHH: QVQLVESGGGLAQAGGSLRLSCAASGRTFSQDAKAWFRQAPGKEREFVAAITWSGRDTDYADSVKGRFTIARDNAKNTVYLQMDSLKPEDTAVYYCAVYPQGTIGPYFRSSNHYDYWGQGTQVTVSS
B24: FJ1427 P035MP03D11 (VHH)
VHH: QVQLVESGGGLVQAGGSLRLSCAASGRTFSTTDVGWFRQAPGKEREFVAAITWSSHSTLYADSVEGRFTVTRENAKNTVYLQMNSLKPEDTAVYYCAAVRRGWAVVRTEGAYDFWGQGTQVTVSA
B25: FJ1427_P035MP03E10 (VHH)
VHH: EVQLVESGGGLVQPGGSLRLSCAASGFTFRNYAMSWVRQAPGKGLEWVGGITGEGLGTIYQDSVEGRFTISRNNAKNTLYLQMNSLRSEDTAVYYCTKMASGTLFRDKPYEYTSRGQGTQVTVSS
B26: FJ1427 P035MP03F07 (VHH)
VHH: QVQLVESGGGLVQAGGSLRLSCAASGRTFSSYVMGWFRQAPGKEREFVVAITGTRRTTDWPDSVKGRFTISRDNAQNTVYLDMNSLKPEDTAVYYCASARGLPVPPLGDIIHWGEGTLVTVSS
B27: FJ1427_P035MP03G10 (VHH)
VHH: QVQLVESGGGLVQAGGSLRLSCAASGRSYAMGWFRQAPGKEREFVAAISWSASSTYYSESVKGRFTISRENAKNTVYLQMNSLKPEDTAVYYCAVRASPFVAGSYDPSDDPADYGSWGQGTQVIVSS
B28: 27-MP04G01 (VHH)
VHH: QVQLVESGGGLVQAGGSLTLSCAAPGRTFGTDVVGWFRQAPGKEREFVASISRSGDGIYYDDSVKGRFTISRNNAWNTVNLQMNSLKVEDTAVYYCAAGDGWSTYDYWGQGTQVTVSS
B29: 30-MP04C03 (VHH)
VHH: EVQLVESGGGWVQDGGSLRLSCALSGRTFVRGIMGWFRQAPGKEREFVARIIWHINSTRYADSVKGRFTISRDSAKNTMYLQMDSLRPEDTAVYYCAARDRYGSGNSLSPSAYDYWGQGTQVTVSS
B30: 29-MP04H02 (VHH)
VHH: QVQLVESGGGLVQAGGSLRLACVASGLTFDNYYMGWFRQAPGKEREFVAGIIWNGDHTAYADSIKGRFTISRDNAKNTAYLRMNSLKPEDTAVYYCAATFWIERATTPDIGQYAYWGQGTQVTVSS

Numbering of substitutions follows the chain as printed.

The first test concerns the target T1, mouse IL-2Rβ (mouse). As to the kind of experiment: P.E. binding ELISA on coated protein. (An ELISA detects its analyte on a solid surface through an enzyme-linked reagent.)
B1 yielded a P.E. binding ELISA OD of 0.049 OD450 nm.

For the molecule B2, the P.E. binding ELISA OD is 0.05 OD450 nm.

Molecule B3 gave a P.E. binding ELISA OD of 0.054 OD450 nm.

B4 yielded a P.E. binding ELISA OD of 0.05 OD450 nm.

Regarding B5, the P.E. binding ELISA OD turned out to be 0.046 OD450 nm.

B6 yielded a P.E. binding ELISA OD of 0.057 OD450 nm.

Consider B7, for which the P.E. binding ELISA OD turned out to be 0.048 OD450 nm.

B8: the P.E. binding ELISA OD is 0.052 OD450 nm.

The molecule B9 came in with a P.E. binding ELISA OD of 0.053 OD450 nm.

Molecule B10 displayed a P.E. binding ELISA OD of 0.054 OD450 nm.

Consider B11, for which the P.E. binding ELISA OD is 0.049 OD450 nm.

Take B12: the P.E. binding ELISA OD was 0.049 OD450 nm.

The molecule B13 had a P.E. binding ELISA OD of 0.048 OD450 nm.

On to B14, for which the P.E. binding ELISA OD was 0.047 OD450 nm.

Turning to B15, the P.E. binding ELISA OD came to 0.049 OD450 nm.

B16 came in with a P.E. binding ELISA OD of 0.047 OD450 nm.

The molecule B17 showed a P.E. binding ELISA OD of 0.048 OD450 nm.

For the molecule B18, the P.E. binding ELISA OD stood at 0.048 OD450 nm.

With B19, the P.E. binding ELISA OD stood at 0.052 OD450 nm.

B20: the P.E. binding ELISA OD worked out at 0.049 OD450 nm.

Take B21: the P.E. binding ELISA OD worked out at 0.047 OD450 nm.

Take B22: the P.E. binding ELISA OD came out at 0.047 OD450 nm.

B23: the P.E. binding ELISA OD was 0.048 OD450 nm.

B24: the P.E. binding ELISA OD was determined as 0.049 OD450 nm.

Molecule B25 had a P.E. binding ELISA OD of 0.048 OD450 nm.

In the case of B26, the P.E. binding ELISA OD came out at 0.048 OD450 nm.

For B27, the P.E. binding ELISA OD came out at 0.048 OD450 nm.

The next test concerns the target T2, mouse IL-2Rγ (mouse). Put plainly: PE binding ELISA, periplasmic extract on coated protein.
B28 displayed an OD (PE binding ELISA) of 0.048 OD450 nm.

Consider B29, for which the OD (PE binding ELISA) is 0.048 OD450 nm.

In the case of B30, the OD (PE binding ELISA) stood at 0.05 OD450 nm.
